{"source": "patent US20250101076A1", "target": "extracellular domain of the growth hormone receptor (human) (UniProt P10912)", "sequence (P10912 19-264)": "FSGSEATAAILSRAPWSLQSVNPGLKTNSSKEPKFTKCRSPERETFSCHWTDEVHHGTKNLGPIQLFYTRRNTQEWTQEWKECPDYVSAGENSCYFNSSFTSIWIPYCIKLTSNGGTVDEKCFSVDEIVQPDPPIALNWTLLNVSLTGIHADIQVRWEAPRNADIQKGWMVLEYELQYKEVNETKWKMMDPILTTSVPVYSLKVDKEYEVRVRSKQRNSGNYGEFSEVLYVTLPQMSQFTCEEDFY", "experiment": "competition ELISA, plate coated with GHR extracellular domain, inhibition of biotin-hGH binding", "note": "pIC50: −log10 of the molar value.", "data": [{"substance": "pegvisomant (ligand)", "values": [{"measurement": "pIC50", "value": 6.86}]}]}
